{"source": "patent US20230173037A1", "about": "“Manipulating Glycogen in Alzheimer’s Disease, Epilepsy, Traumatic Brain Injury, and ALS as a Treatment” (University of Kentucky Research Foundation, priority 2020, published 2023)", "assay": "Activity of enzymes to degrade glycogen under neutral pH", "type": "biochemical", "settings": "neutral pH of the cellular environment"}
{"molecule": "human pancreatic α-amylase: enzyme component of VAL-0417, degrades glycogen (protein, UniProt P04746 16-511, looked up) Pancreatic alpha-amylase: QYSPNTQQGRTSIVHLFEWRWVDIALECERYLAPKGFGGVQVSPPNENVAIYNPFRPWWERYQPVSYKLCTRSGNEDEFRNMVTRCNNVGVRIYVDAVINHMCGNAVSAGTSSTCGSYFNPGSRDFPAVPYSGWDFNDGKCKTGSGDIENYNDATQVRDCRLTGLLDLALEKDYVRSKIAEYMNHLIDIGVAGFRLDASKHMWPGDIKAILDKLHNLNSNWFPAGSKPFIYQEVIDLGGEPIKSSDYFGNGRVTEFKYGAKLGTVIRKWNGEKMSYLKNWGEGWGFVPSDRALVFVDNHDNQRGHGAGGASILTFWDARLYKMAVGFMLAHPYGFTRVMSSYRWPRQFQNGNDVNDWVGPPNNNGVIKEVTINPDTTCGNDWVCEHRWRQIRNMVIFRNVVDGQPFTNWYDNGSNQVAFGRGNRGFIVFNNDDWSFSLTLQTGLPAGTYCDVISGDKINGNCTGIKIYVSDDGKAHFSISNSAEDPFIAIHAESKL", "values": [{"measurement": "activity to degrade glycogen", "result": "best activity"}]}
